Test results reported in the supplement of paper PMC12455559.
± gives the standard deviation of the averaged measurements.

How the values were obtained:
[1] = melting temperature (DSF); higher = more thermostable
Procedure, shortened: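 Candidate enzymes were expressed in E. coli C41(DE3), purified on nickel beads and released by SUMO protease cleavage. For differential scanning fluorimetry, 45 μL enzyme (0 to 0.3 mg/mL) was mixed with 5 μL 5X Sypro Orange in sealed PCR plates on a Bio-Rad CFX96 instrument. Fluorescence was read from 25 °C in steps of 0.3 °C per cycle (ramp 0.3 °C/s) for 250 cycles. The read-out is melting temperature.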

[2] = PET hydrolysis, aromatic products released after 48 h (umol product/mg enzyme); higher = more PET depolymerization activity
Procedure, shortened: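 Reactions ran in sealed plates without shaking for 48 h at 40 or 60 °C. Each held 3.5 mg amorphous PET film or crystalline PET powder, 450 μL buffer and 5 μg (50 μL) of tagless, SUMO-cleaved, nickel-purified candidate enzyme. Buffers were 50 mM NaCitrate at pH 4.5 or 5.5, 50 mM NaPhosphate at pH 6.5 or 7.5, and glycine at pH 8.5. The supernatant's aromatic product, read at 260 and 280 nm against buffer blanks, gives PET hydrolysis activity per mg enzyme.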

[3] = purified protein yield per well (BCA); higher = higher soluble expression
Procedure, shortened: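 Each candidate enzyme was grown in E. coli C41(DE3) in a 2 mL autoinduction culture (100 µg/mL kanamycin; 2 h at 37 °C, then 40 h at 18 °C) and purified robotically via Ni-charged magnetic beads with SUMO protease cleavage. Purified protein yield per well was assessed using the Pierce Rapid Gold BCA kit. Readings below 25 ug (0.1 mg/mL) are beneath the detection threshold.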

[4] = substrate: cryPow, 40 °C, pH 4.5
[5] = substrate: cryPow, 40 °C, pH 5.5
[6] = substrate: cryPow, 40 °C, pH 6.5
[7] = substrate: cryPow, 40 °C, pH 7.5
[8] = substrate: cryPow, 40 °C, pH 8.5
[9] = substrate: cryPow, 60 °C, pH 5.5
[10] = substrate: cryPow, 60 °C, pH 6.5
[11] = substrate: cryPow, 60 °C, pH 7.5
[12] = substrate: cryPow, 60 °C, pH 8.5
[13] = substrate: cryPow, 60 °C, pH 4.5
[14] = substrate: aFilm, 40 °C, pH 4.5
[15] = substrate: aFilm, 40 °C, pH 5.5
[16] = substrate: aFilm, 40 °C, pH 6.5
[17] = substrate: aFilm, 40 °C, pH 7.5
[18] = substrate: aFilm, 60 °C, pH 4.5
[19] = substrate: aFilm, 60 °C, pH 5.5
[20] = substrate: aFilm, 60 °C, pH 6.5
[21] = substrate: aFilm, 60 °C, pH 7.5

Sequence	melting temperature [1] [C]	PET hydrolysis [2, 4]	PET hydrolysis [2, 5]	PET hydrolysis [2, 6]	PET hydrolysis [2, 7]	purified protein yield per well [3] [µg]	PET hydrolysis [2, 8]	PET hydrolysis [2, 9]	PET hydrolysis [2, 10]	PET hydrolysis [2, 11]	PET hydrolysis [2, 12]	PET hydrolysis [2, 13]	PET hydrolysis [2, 14]	PET hydrolysis [2, 15]	PET hydrolysis [2, 16]	PET hydrolysis [2, 17]	PET hydrolysis [2, 18]	PET hydrolysis [2, 19]	PET hydrolysis [2, 20]	PET hydrolysis [2, 21]	PET hydrolysis ([2]; substrate: aFilm, 40 °C, pH 8.5)	PET hydrolysis ([2]; substrate: aFilm, 60 °C, pH 8.5)
ADNPYERGPAPTTSSIEASRGPFATASTTVSSLVSGFGGGTIYYPTSTAEGTFGAVAISPGYTGTQSSIAWLGPRIASQGFVVITIDTNTIYDQPDSRASQLLAALDYLTQSSSVRTRIDATRLGVMGHSMGGGGTLRAAESRPALQAAIPLTAWHTDKTWGNVRVPTLVIGAENDSIAPVATHSEPFYTSLPSTLDKAYLELNAADHFAPNSSNTTIAKYSISWLKRFIDNDTRYEQFLCPPPSRSLLIEEYRDTCPHS [TEP108]	42.1	< 3	< 3	< 3	< 3	53.3	–	–	–	–	–	–	–	–	–	–	–	–	–	–	–	–
ADNPYERGPDPTERSIEAARGPFGVSTERVGSLGVSDFGGATIYHPTDRSQTYGAIAISPGFTAGWTSLSWLGERLASQGFVVIGIDTITRLDQPGSRGRQLLAALDYATTRSNARALIDAQRLAVAGHSMGGGGTLEAAAERPSLKAAIPLAPWNLDKSWAEVRTPTLIIGGESDNIAAVNTHSIPFYNSLSNAREKAYMEIDNGTHFFPNTANTLMAKYMISWMKRYIDDDTRYEQFLCPPPDDRGISEYRHTCPGS [DP088]	43.9	–	< 3	< 3	< 3	70	< 3	< 3	< 3	< 3	< 3	–	–	–	–	–	–	–	–	–	–	–
ADNPYERGPDPTESSIEASRGPFAVSQTTVSSLAVTGFGGGTIYYPTDTSQGTFGAVAISPGYTADQSSIAWIGPRLASQGFVVFTIDTITRYDQPASRGDQLLAALDYLTQRSSVRGRIDSSRLGVAGHSMGGGGTLEAAEERPSLQAAVPLAPWNLQKNFSGVRVPTFIIGGESDTVAPVATHSEPFYTSLPSTLDKAYMELNNASHFFPNTPNTTMAKYMISWFKRFIDDDTRYDQFLCPNPSGLAIEEYRSTCPY [TEP089]	44.2	< 3	< 3	< 3	< 3	105	–	< 3	< 3	< 3	–	< 3	–	–	–	–	–	–	–	–	–	–
ADNPYERGPDPTPASVAAPNGPFATAQVSVPPGYGFNGGMIYYPTDTSQGTFGAIAISPGYTALFSVELAWMGPRLASQGFVVIGIETNDRNDFDTARGTQLLAALDYLTGQSSVRSRVDPNRLAVAGHSMGGGGAFSAALRRPALKAAVGFTPFSPSQNLTNMQVPALLYSGQNDTVTTPSSVSNLYNGLPSTTEGAYLEAAGLDHSFPTRPNTLLMRTMIPWVKIFLDNDLRYTQFLCPLMDSSGVLQYRNTCPLVPPGLPSPSPTTAPPTTAPPTTAPPTTAPPTTAPPTTAPPTTAPPAGACTATYQTIGSWPGGFQGEVTVRAGNSAINGWTVGWSLGSGQSITQIWNGTLSTSGSSVSVRNVSYNGSLPAAGTVTFGFLGSGSPSTPSTVTCTSP [ESM012]	60.7	< 3	9.5 ± 3.5	21.5 ± 3.5	21.5 ± 0.71	519	–	< 3	< 3	< 3	–	< 3	< 3	< 3	< 3	< 3	< 3	< 3	< 3	< 3	–	–
ADNPYERGPDPTRTSVATERGPFANTSVSVPSGHGFNGGRIYYPTDTSQGTFGAIAISPGYTALFSVELAWMGPWLASHGFVVIGIETNSTNDFDTARGTQLLAALDYLTQQSPVRDRIDPSRLAVSGHSMGGGGALSAAMRRSSLKAVVGITPFSPSSNLASNQVPTMVISGQADTVVTPSYALDLYNSLPASTESVYLEVAGGDHGFMVGRSNPVLIRTMLPFLKMFVDNDTRYSQFLCPLMDNSGVVTYRSTCPLLPTPPTTPPPTGDPTSPPPSTDPTTPPPSGSTGQIVGTQSNRCIDVPNSSRNNGTRVQLYDCHGQANQTWTYNSTTKQLRVYGDMCLDAAGSGNGAAVQIYNCHGQTNQQWNLNSNGTISGVQSNRCLDVWSTNNGAQIQLYDCHGQTNQQFRIRS [ESM173]	61.6	3.5 ± 0.71	11.5 ± 0.71	20.5 ± 0.71	11	199	–	< 3	< 3	< 3	–	< 3	< 3	< 3	< 3	< 3	< 3	< 3	< 3	< 3	–	–
ADNPYERGPDPTRTSVATERGPFANTSVSVPTGYGFNGGRIYYPTDTSQGTFGAIAISPGYTALFSAELAWMGPWLASHGFVVIGIETNSRNDFDTARGTQLLAALDYLTQQSPVRDRVDASRLAVAGHSMGGGGALSAATRRPALKAAVGITPFSPSSNLANDRVPTMVISGQADTVVTPSYALDLYNSLPSTTESVYVEVAGGDHGFMVGRSNPVMIRTMLPFLKIFVDNDARYSQFLCPLMDNSGVVTYRSTCPLINTPTTPPPTSPPPTSPPPTSPPPTTPPPGSATQIVGVQSNRCIDVPNSSRNNGTRVQLYDCHGQTNQAWTYTANKQLQVYGNMCLDAAGTGNGAAVQIYSCHGGANQQWNVNSNGTISGVQSGRCLDVWSTSNGAQVQLYDCHGGTNQRFNLVAR [TEP082]	63.1	6.5 ± 0.71	15 ± 1.4	39.5 ± 2.1	34 ± 1.4	282	–	2 ± 2.8	6 ± 1.4	3.5 ± 0.71	–	< 3	< 3	< 3	< 3	< 3	< 3	< 3	< 3	< 3	–	–
ADNPYERGPNPTESLIEAARGPFATSQTTVSSLSVTGFGGGVIYYPTDTSQGTFGGIAISPGYTAAWSSLDWLGPRLASHGFVVIGIETNTRLDQPASRGDQLLAALDYLTQRSSVRSRVDATRLAVAGHSMGGGGSLEAAKDRTSLKAAIPLAPWNTDKTWPEVRTPTLIIGGESDTVAPVSSHSIPFYTSLTSAREKAYLELDNASHFFPQTSNTTMAKYMISWMKRYIDNDTRYEQFLCPGPSTGLLSGISDWRQTCPGS [TEP073]	46.9	< 3	< 3	< 3	< 3	81.6	–	< 3	< 3	< 3	–	< 3	–	–	–	–	–	–	–	–	–	–
ADNPYERGPNPTQASIAASRGTFATAEVSVGGGNGFAAAKIYYPTDTSQGTFGAIAIVPGYTATWAAEGAWMGPWLASFGFVVIGIDTLSRNDFDTARGTQLLAALDYLTQRSSVRSRVDASRLAVMGHSMGGGGAISAALRRPSLKAAVGLAPFSPSQGTSGMRVPSMLLAGQRDGTVTPSSVRNLYNAIPATTEKAYLELTGAGHGFPTSANSVMMRKVIPWLKIFVDQDTRYQQFLCPLVDWTGITSYQSSCPLIPGGSTGTTYNLVNSSGKCADVNAASQVNGAALLLWTCHTNPNQRWTETSAKELRVYDNPKCMDAGAAQQGTRVTINSCSGGGSQKWTVNANGTVTNDLSGRCLGAAGGATTDNTPLVVASCDGSPGQQWTKQS [TEP093]	69.7	4	12	31	28	166	–	4	7	7	–	< 3	–	–	–	–	–	–	–	–	–	–
ADNPYQRGPAPTAASIAADRGPFATAQVTVPRGNGFGGGVIYYPTDTSQGTFGAIAIAPGFGTAWSYYAWQGPRLASFGFVVIGIETNTLNDYADARAAQLLAALDYLVNSSSVRDRVDRNRLAVGGHSMGGGGAILAANQRPSLLTAVGQAPYVPDGSLSGIKSPTIIFAGQADGTVTPQYAQNAYNTIPGSVERAYVEIANEGHGFPAGGGGGNSGAFARTMMVWLKLFVDKDTRYAPFLCPSLTNANGISKYMASCPLDPPGGGPTASPTSTPTSTPTSTPTSTPTGTPPAGGTSALRGVASGRCLDVNGASQANGATVLIWDCNGQNNQKWTSTSAGELRVYGNKCLDVNGGGTADGSAVIIWDCNGQSNQKWRLNSDGSITAVGANKCLDVSGNGTANGTRVQIWSCTGGTNQKWTRV [ESM010]	64.6	< 3	3	4	5	79.7	–	< 3	< 3	< 3	–	< 3	–	–	–	–	–	–	–	–	–	–
ADNPYQRGPAPTAASISADTGPFATATTVAEGTGFGGATIYYPTDTSQGTFGAIGMLPGWTAPWSAYAWLGPRLASQGFVVIGVDTNDPNDYPAARATQVLAALDHLTESSAVRDRVDPDRLAVAGHSMGGGGSLEAALSRPSLKAVYGIEPYDDITSDFSNLTVPTFIQAGQDDTLVTPSYLESLYATLPSTSEHAYLEIAGADHMFVGSPNVILARTLISWMKIFVDDDTRYTQFLCPLSDDSGVSQYRNTCPLTPGGSTGSPTATAPSPPASSSNPPGTPSSPAPTDGTCRVTYTTNAWDSGLTASVTIANTGTTASTGWSLAFTLPDGQTITSGWNATYSPSSGQVTATGVSHNATIPAGESINIGFQATHTGDTGAPTTFALNGQTCTIT [DP021]	47.5	–	5	< 3	< 3	170	< 3	< 3	< 3	< 3	< 3	–	–	–	–	–	–	–	–	–	–	–
ADNPYQRGPAPTNTSIEATRGTYAVSTKTISALSARGFGGGTIYYPTSTADGTFGVVAISPGYTASQSTIAWLGPRLASFGFVVVTIDTTTRYDQPTSRGSQLLAALDQAIGDSTVGPRIDATRQAVVGHSMGGGGTLEAAKTRRSLEAAVPLTGWNLDKTWPEVEAATLVIGAQNDTVAPTTSHSIPFYNSLSGAERKAYLELRGASHFAPVTSNTTIAKHTLSWLKRYVDDDTRYEQFISPGPSTAIGSPVSDYRVN [DP022]	35.8	–	< 3	< 3	< 3	215	< 3	< 3	< 3	< 3	< 3	–	–	< 3	< 3	< 3	–	< 3	< 3	< 3	< 3	< 3
